Test results: patent publication CN106146662A (UNIV SUN YAT SEN, dated 2016)

T1: CD3-His蛋白(MP-5)
T1 chain: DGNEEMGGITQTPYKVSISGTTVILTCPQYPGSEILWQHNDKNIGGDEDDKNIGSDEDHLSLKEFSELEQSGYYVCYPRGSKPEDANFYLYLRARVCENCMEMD

B1: C62 (VHH)
VHH: QVQLQESGGGLVQAGGSLRLSCAASGRTFSNYHMGWFRQAPGKERELVAAISGSGGSTYYTDSVKGRFTISRNNAKNTMSLQMSNLKPEDTGVYYCTTPTEKGSSIDYWGQGTQVTVSS
notes: Llama sdAb tested as sdAb-SASA protein in crude expression medium / culture supernatant; 1 nowhere in its text; also called 抗CD3单域抗体; sdAb; not shown: SASA fusion partner from the pFASEBA vector (sdAb-SASA protein)
B2: C84 (VHH)
VHH: QVQLQESGGGLVQAGGYLRLSCAVSGRTFSSYAMGWFRQAPGKEREFVAAINWSGGSTYYVDSVKGRFTISRDNAKNTVYLQMNSLKPEDTAVYYCAASGLGYTIVSASEYDYWGQGTQVTVSS
notes: Llama sdAb tested as sdAb-SASA protein in crude expression medium / culture supernatant; 3 nowhere in its text; also called 抗CD3单域抗体; sdAb; not shown: SASA fusion partner from the pFASEBA vector (sdAb-SASA protein)

Tests used:
CD3 on Jurkat cells = assay: flow cytometry, culture supernatant on Jurkat cells
CD3-His蛋白(MP-5) = target: T1, CD3-His蛋白(MP-5); assay: BLI (Octet RED96) off-rate screen, sdAb-SASA from expression medium captured on BSA-coated biosensor, 100 nM CD3 in solution, 1:1 Langmuir model, 30°C

Binder	MFI (CD3 on Jurkat cells) [MFI]	koff (CD3-His蛋白(MP-5)) [s⁻¹]
B1	283	5.32e-05
B2	312	2.84e-05
